{"source": "patent US20090042805", "proteins": {"B1": {"name": "Human recombinant caspase-2 (protein)", "chain": "GPVCLQVKPCTPEFYQTHFQLAYRLQSRPRGLALVLSNVHFTGEKELEFRSGGDVDHSTLVTLFKLLGYDVHVLCDQTAQEMQEKLQNFAQLPAHRVTDSCIVALLSHGVEGAIYGVDGKLLQLQEVFQLFDNANCPSLQNKPKMFFIQACRGDETDRGVDQQDGKNHAGSPGCEESDAGKEKLPKMRLPTRSDMICGYACLKGTAAMRNTKRGSWYIEALAQVFSERACDMHVADMLVKVNALIKDREGYAPGTEFHRCKEMSEYCSTLCRHLYLFPGHPPT"}}, "key": {"Ac-VDVAD-cho": {"biological_target": "T1, Ac-VDVAD-cho", "T1 chain": "VDVAD"}, "Z-VDVAD-FMK": {"biological_target": "T2, Z-VDVAD-FMK", "T2 chain": "VDVAD"}}}
{"protein": "B1", "values": [{"measurement": "in vitro VDVAD-AMC cleavage by recombinant caspase-2", "setting": "Ac-VDVAD-cho", "value": "as efficiently as commercially available caspase-2 reversible (Ac-VDVAD-Cho) or irreversible (Z-VDVAD-FMK) inhibitors"}, {"measurement": "in vitro VDVAD-AMC cleavage by recombinant caspase-2", "setting": "SEQ8", "value": "is blocked by SEQ8"}, {"measurement": "in vitro VDVAD-AMC cleavage by recombinant caspase-2", "setting": "Z-VDVAD-FMK", "value": "as efficiently as commercially available caspase-2 reversible (Ac-VDVAD-Cho) or irreversible (Z-VDVAD-FMK) inhibitors"}]}
